Experimental data from patent US20040087498A1, “Modified factor VII” (Novo Nordisk Health Care AG, priority 1991, published 2004).
Read-outs that look alike come from different tables or passages of the source. Blank lines part the entries; values can stand above or below the molecule they belong to.

Experiments:
[1] = target: purified recombinant soluble tissue factor
[2] = target: tissue factor preparation, saline extract of baboon brain (baboon)
[3] = target: cell-surface tissue factor on baboon smooth muscle cells (baboon)
[4] = target: T1, cell-surface tissue factor on rat vascular smooth muscle cells (Rattus norvegicus, UniProt P42533); assay: Factor Xa generation on rat smooth muscle cells (S-2222); format: cell-based; conditions: 10 nM Factor VIIa
T1 construct: endogenous in cells; host or cells: rat vascular smooth muscle cells
T1 sequence (P42533 29-295): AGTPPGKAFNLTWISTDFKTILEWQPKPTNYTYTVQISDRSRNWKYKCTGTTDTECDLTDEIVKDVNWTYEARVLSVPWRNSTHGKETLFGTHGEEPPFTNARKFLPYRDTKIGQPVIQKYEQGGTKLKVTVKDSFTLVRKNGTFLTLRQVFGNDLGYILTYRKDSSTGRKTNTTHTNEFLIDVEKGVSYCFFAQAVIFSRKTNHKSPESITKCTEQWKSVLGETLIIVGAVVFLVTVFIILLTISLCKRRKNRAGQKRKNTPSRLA
Protocol: Vascular smooth muscle-cells were analyzed for the presence of cell-surface tissue factor by measuring the ability of the cells to stimulate the conversion of Factor X to Factor Xa using a chromogenic substrate that is specific for Factor Xa.
Rat vascular smooth muscle cells (Clowes et al., J. Clin. Invest. 93:644-651 (1994)) were plated into 96-well culture dishes (American Scientific Products, Chicago, Ill.) at 8,000 cells per well in growth media (Table 4).
After a 48 hour incubation at 37° C. the medium was changed to serum free medium (Table 5).
The cells were incubated 72 hours at 37° C. After incubation, either PDGF-BB (10 ng/ml) or 10% fetal calf serum was added to the cells to stimulate tissue factor expression (Taubman et al., J. Clin. Invest, 21:547-552, 1993). A parallel set of cells received neither PDGF nor serum to monitor for intrinsic activity of unstimulated cells. […] The cells were incubated for 2 hours at 37° C. and washed with HEPES buffer (10 mM HEPES, 137 mM NaCl, 4 mM KCl, 5 mM CaCl2, 11 mM glucose, 0.1% BSA). After washing, cells were incubated for 5 min with 50 μl per well of 200 nM plasma-purified human Factor X in a Tris-buffered saline supplemented with 5 mM CaCl2. Twenty-five microliters of 0.5 M EDTA and 25 μl of an 800 μM solution of S-2222 chromogenic substrate (Kabi Pharmacia, Franklin, Ohio) were added to each well. The plates were incubated for 40 min at room temperature, then analyzed at 405 nm using a THERMOMAX microplate reader (Molecular Devices, Menlo Park, Calif.).

[5] = target: T1, cell-surface tissue factor on rat vascular smooth muscle cells; assay: Inhibition of cell-surface chromogenic activity by DEGR-Factor VIIa; format: cell-based; conditions: 10 nM Factor VIIa; cells stimulated with 10% fetal calf serum
Protocol: Rat vascular smooth muscle cells were plated into 96-well culture dishes as described above. The cells were cultured for 72 hours in serum free media as described above and treated with the addition of 10% fetal calf serum for 6 hours to stimulate tissue factor expression. […] The cells were incubated for 2 hours at 37° C., then washed with HEPES buffer. After washing, the cells were incubated for 5 minutes with […] per well of 200 nM Factor X in Tris-buffered saline supplemented with 5 mM CaCl2. Twenty-five microliters of 0.5 M EDTA and 25 μl of S-2222 (800 μM) chromogenic substrate (Kabi Pharmacia) were added to each well. The cells were incubated at room temperature for 40 minutes. Chromogenic activity was analyzed at 405 nm as described above.

[6] = target: T2, cell-surface tissue factor on rat smooth muscle cells (Rattus norvegicus, UniProt P42533); assay: Dose-dependent cell-surface chromogenic activity on rat smooth muscle cells; format: cell-based
T2 construct: endogenous in cells; host or cells: rat vascular smooth muscle cells
T2 sequence (P42533 29-295): T1 sequence (P42533 29-295)
Protocol: Rat vascular smooth muscle cells were plated into 96-well culture dishes at 4,000 cells per well in growth medium supplemented with 1% fetal calf serum (as in Table 4 without 10% fetal calf serum). […] The cells were incubated with the Factor VII mixtures for 2 hours at 37° C. After incubation, the cells were washed and incubated with 50 μl of 200 nM Factor X in tris buffered saline for 5 minutes at room temperature. Each well had 25 μl of 0.5 M EDTA and 25 μl of […] S-2222 (Kabi Pharmacia) added to it, and the plates were incubated for 40 minutes at room temperature. Chromogenic activity was analyzed at 405 nm in a microplate reader as described above.

[7] = system: Factor VII-deficient plasma; assay: One-stage clotting assay of coagulant activity; format: biochemical, human
Protocol: The ability of the modified Factor VII protein to inhibit clotting was measured in a one-stage clotting assay using wild-type Factor VII as a control. Recombinant proteins were prepared essentially as described above from cells cultured in media containing 5 μg/ml vitamin K. Varying amounts of the modified Factor VII (from clone 544) or recombinant wild-type Factor VII were diluted in 50 mM Tris pH 7.5, 0.1% BSA to 100 μl. The mixtures were incubated with 100 μl of Factor VII-deficient plasma (George King Bio-Medical Inc., Overland Park, Kans.) and 200 μl of thromboplastin C (Dade, Miami, Fla.; contains rabbit brain thromboplastin and 11.8 mM Ca^++). The clotting assay was performed in an automatic coagulation timer (MLA Electra 800, Medical Laboratory Automation Inc., Pleasantville, N.Y.), and clotting times were converted to units of Factor VII activity using a standard curve constructed with 1:5 to 1:640 dilutions of normal pooled human plasma (assumed to contain-one unit per ml Factor VII activity; prepared by pooling citrated […] from healthy donors). […] Factor VII activity is seen as a reduction in clotting time over control samples.

[8] = target: T3, tissue factor (thromboplastin) (Oryctolagus cuniculus, UniProt P24055); assay: One-step clotting mixing assay with a limiting amount of tissue factor; format: biochemical, rabbit
T3 construct: contains rabbit brain thromboplastin; purchased Dade, Miami, Fla. thromboplastin-C; host or cells: rabbit brain extract
T3 sequence (P24055 33-292): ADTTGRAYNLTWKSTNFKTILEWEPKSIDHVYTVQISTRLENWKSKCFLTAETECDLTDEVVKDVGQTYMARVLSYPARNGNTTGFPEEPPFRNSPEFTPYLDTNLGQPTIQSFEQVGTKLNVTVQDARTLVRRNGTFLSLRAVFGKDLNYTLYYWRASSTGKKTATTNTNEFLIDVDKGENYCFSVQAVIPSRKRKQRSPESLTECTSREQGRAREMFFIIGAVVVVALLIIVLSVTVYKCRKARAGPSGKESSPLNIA
Protocol: The ability of the modified Factor VII to compete with wild-type Factor VII for tissue factor and inhibit its clotting activity was assessed in a one-step clotting assay in the presence of a limiting amount of tissue factor (thromboplastin).
Clotting times were determined in a one-step assay similar to that described in Example II. A limited amount of tissue factor, a constant amount of wild type Factor VII, and increasing amounts of variant Factor VII were used in the mixing experiments. An inhibition of Factor VII/VIIa procoagulant activity would be seen as an increase in clotting time in assays containing increasing amounts of variant Factor VII.
The amount of Factor VII activity in the test samples was calculated as a percentage of a standard curve that measured Factor VII activity in normal pooled plasma. The standard curve for Factor VII activity was generated using serial dilutions of normal pooled plasma in phosphate buffered solution (PBS) that ranged from 1:5 to 1:640. For this purpose it was assumed that normal plasma contains approximately 500 ng/ml of Factor VII and this was considered to be one unit of activity. A mixture of 100 μl Factor VII-deficient plasma, 100 μl plasma dilution and 200 μl of thromboplastin-C (Dade, Miami, Fla.) was used to measure clotting time on a MLA Electra 800 automatic timer. To establish the standard curve, the results were graphed as percentage of activity (1:5=100% activity) versus clotting time in seconds.
The assay required that the medium containing the wild type and variant Factor VII be composed of less than one percent serum. The dilutions were made in PBS so that clotting times would fall along the standard curve. A minimum dilution of 1:2 was typical. The final volume was 100 μl. Two different human Factor VII Ser344→Ala variants, designated clones “#10” and “#6” were tested in the experiments.

[9] = in vivo; cited from earlier work
[10] = target: tissue factor (thromboplastin C, rabbit brain thromboplastin) (rabbit) (UniProt P24055)
[11] = target: T4, cell-surface tissue factor on rat vascular smooth muscle cells (rat) (UniProt P42533)
T4 sequence: T1 sequence (P42533 29-295)

[12] = target: T4, cell-surface tissue factor on rat vascular smooth muscle cells (rat); remark: listed apart in the source
[13] = target: T4, cell-surface tissue factor on rat vascular smooth muscle cells (rat); remark: listed apart in the source
[14] = target: purified recombinant soluble tissue factor; remark: listed apart in the source
[15] = variant medium 10 μl + B4A1 (wild type) medium 10 μl
[16] = variant medium 20 μl + B4A1 (wild type) medium 10 μl
[17] = variant medium 30 μl + B4A1 (wild type) medium 10 μl
[18] = variant medium 40 μl + B4A1 (wild type) medium 10 μl
[19] = variant medium 50 μl + B4A1 (wild type) medium 10 μl

- OD405 ([4]; Intrinsic (unstimulated cells)): .247
- OD405 ([4]; cells stimulated with 10% FCS): .342
- OD405 ([4]; cells stimulated with PDGF-BB (10 ng/ml)): .360
- OD405 [5]: .342
- OD405 ([6]; Factor VIIa 1.56 nM alone): .058
- OD405 ([6]; Factor VIIa 6.25 nM alone): .111
- OD405 ([6]; Factor VIIa 25.00 nM alone): .154
- OD405 ([6]; Factor VIIa 100.00 nM alone): .208
- OD405 ([6]; Factor VIIa .10 nM alone): .005
- OD405 ([6]; Factor VIIa .39 nM alone): .025
Molecule: Factor VIIa: Recombinant human Factor VIIa, activated two-chain form [reference compound]

- Percent FVIIa Activity [8, 15]: 74%
- Percent FVIIa Activity [8, 16]: 56%
- Percent FVIIa Activity [8, 17]: 46%
- Percent FVIIa Activity [8, 18]: 41%
- Percent FVIIa Activity [8, 19]: 32%
Molecule: Modified Factor VII (#6): human Factor VII Ser344→Ala variant, clone #6
- Clotting time ([7]; dilution 1:1): 33.5 s

- Percent FVIIa Activity [8, 15]: 70%
- Percent FVIIa Activity [8, 16]: 51%
- Percent FVIIa Activity [8, 17]: 43%
- Percent FVIIa Activity [8, 18]: 34%
- Percent FVIIa Activity [8, 19]: 28%
Molecule: Modified Factor VII (#10): human Factor VII Ser344→Ala variant, clone #10
- Clotting time ([7]; dilution 1:1): 32.5 s

- Percent FVIIa Activity [10]: 28%
Molecule: human Factor VII Ser344→Ala variant (from UniProt P08709) (enzyme)

- Percent FVIIa Activity [10]: 78%
Molecule: human Factor VII Ser344→Ala variant expressed without vitamin K (from UniProt P08709) (enzyme)

- OD405 (Factor Xa chromogenic activity, S-2222) [11]: 0.36 OD405
- OD405 (Factor Xa chromogenic activity, S-2222) [12]: 0.342 OD405
- OD405 (Factor Xa chromogenic activity, S-2222) [13]: 0.208 OD405
- OD405 (Factor Xa chromogenic activity, S-2222) [14]: 0.79 OD405
Molecule: recombinant human Factor VIIa (from UniProt P08709) (enzyme)

Continued, molecule first:

Molecule: DEGR-Factor VIIa (from UniProt P08709) (enzyme)
- OD405 (Factor Xa chromogenic activity, S-2222) [1]: 0.055 OD405
- Clotting time [2]: 158 s
- inhibition of Factor Xa chromogenic activity on baboon smooth muscle cells [3]: > 90%

Molecule: Wild-type Factor VII: recombinant wild-type Factor VII used as a control
- Clotting time ([7]; dilution 1:20): 19.0 s
- Clotting time ([7]; dilution 1:40): 21.5 s
- Clotting time ([7]; dilution 1:80): 23.3 s

Molecule: heparin
- half-life [9]: approximately 80 minutes

B1: #10 (−K): Ser344→Ala variant clone #10 expressed by cells grown without vitamin K (protein, UniProt P08709 1-466, looked up, variant S344A)
chain: MVSQALRLLCLLLGLQGCLAAGGVAKASGGETRDMPWKPGPHRVFVTQEEAHGVLHRRRRANAFLEELRPGSLERECKEEQCSFEEAREIFKDAERTKLFWISYSDGDQCASSPCQNGGSCKDQLQSYICFCLPAFEGRNCETHKDDQLICVNENGGCEQYCSDHTGTKRSCRCHEGYSLLADGVSCTPTVEYPCGKIPILEKRNASKPQGRIVGGKVCPKGECPWQVLLLVNGAQLCGGTLINTIWVVSAAHCFDKIKNWRNLIAVLGEHDLSEHDGDEQSRRVAQVIIPSTYVPGTTNHDIALLRLHQPVVLTDHVVPLCLPERTFSERTLAFVRFSLVSGWGQLLDRGATALELMVLNVPRLMTQDCLQQSRKVGDSPNITEYMFCAGYSDGSKDSCKGDAGGPHATHYRGTWYLTGIVSWGQGCATVGHFGVYTRVSQYIEWLQKLMRSEPRPGVLLRAPFP
modifications: expressed without vitamin K
notes: Ser344→Ala variant clone #10 expressed by cells grown without vitamin K
- Percent FVIIa Activity [8, 16]: 78%

B2: #6 (−K): Ser344→Ala variant clone #6 expressed by cells grown without vitamin K (protein, UniProt P08709 1-466, looked up, variant S344A)
chain: B1 chain
modifications: expressed without vitamin K
notes: Ser344→Ala variant clone #6 expressed by cells grown without vitamin K
- Percent FVIIa Activity [8, 16]: 85%
